One test deals with T1, human ACVR2A (human, UniProt P27037 20-135, limits assumed).
T1 construct: also called activin receptor, type II A
Nature of the test: ELISA. An outline of the steps:
(§1)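 mAb binding by ELISA; antigens: hu ACVR2A, mu ACVR2A; pos ctrl biotinylated goat anti-hu kappa LC; neg ctrl hu Fc.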
In general terms: In an ELISA, binding on a coated surface is turned into a signal by an enzyme label.

Another test has as its target mouse ACVR2A (mouse, UniProt P27038 20-135, limits assumed). Nature of the test: ELISA. An outline of the steps: as §1
Test [1] deals with T2, biotinylated goat anti-human kappa light chain.
T2 construct: positive control of the ELISA
Briefly: ELISA, positive control. An outline of the steps:
as §1

The text below walks through data of US20210380703A1 (RIGEL PHARMACEUTICALS, published 2021).
Also: test concentration or dose not given here.

T1 sequence (P27037 20-135 limits assumed): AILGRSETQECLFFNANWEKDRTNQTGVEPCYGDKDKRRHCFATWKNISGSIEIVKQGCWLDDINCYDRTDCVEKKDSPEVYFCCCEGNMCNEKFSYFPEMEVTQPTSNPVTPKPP
Chain of mouse ACVR2A (P27038 20-135 limits assumed): as the sequence (P27037 20-135 limits assumed) above, with K20R, V73I counted along it

B1: 371_G07 (antibody, V domains shown)
VH: EVQLLESGGGLVQPGGSLRLSCAASGFTFSDYGMHWVRQAPGKGLEWVAGINYNGGYTSYADSVKGRFTISRDNSKNTLYLQMNSLRAEDTAVYYCARAATWHDTHLDYWGQGTLVTVSS
VL: DIQMTQSPSSLSASVGDRVTITCRASQSIVSYVNWYQQKPGKAPKLVIYAATSRASGVPSRFSGSGSGTDFTLTISSLQPEDFATYYCQQSYSLPLTFGGGTKVEIK
notes: Group II
Turning to B1, the optical density in the test with human ACVR2A came out at 2.8 OD; with mouse ACVR2A it was 2.99 OD; in test [1] it was 3.41 OD.

B2: 375_C03 (antibody, V domains shown)
VH: EVQLLESGGGLVQPGGSLRLSCAASGFTFDSYSMHWVRQAPGKGLEWVSGINYNGGYTSYADSVKGRFTISRDNSKNTLYLQMNSLRAEDTAVYYCARAATWHDTHLDYWGQGTLVTVSS
VL: DIQMTQSPSSLSASVGDRVTITCRASQSILSYVNWYQQKPGKAPKLVIYAATSRASGVPSRFSGSGSGTDFTLTISSLQPEDFATYYCQQSYESPLTFGGGTKVEIK
notes: Group II
In the case of B2, the optical density came to 3 OD with human ACVR2A, 3.24 OD in the test with mouse ACVR2A and 3.16 OD in test [1].

B3: 373_B01 (antibody, V domains shown)
VH: EVQLLESGGGLVQPGGSLRLSCAASGFTFDSYGMHWVRQAPGKGLEWVSGINYNGGYKSYADSVKGRFTISRDNSKNTLYLQMNSLRAEDTAVYYCARAATWHDTHLDYWGQGTLVTVSS
VL: DIQMTQSPSSLSASVGDRVTITCRASQSILSYVNWYQQKPGKAPKLVIYAATSRASGVPSRFSGSGSGTDFTLTISSLQPEDFATYYCQQSYDLPLTFGGGTKVEIK
notes: Group II
On to B3, for which the optical density in the test with human ACVR2A was 3.26 OD; in the test with mouse ACVR2A it was 3.58 OD; in test [1], 3.11 OD.

B4: 374_F03 (antibody, V domains shown)
VH: EVQLLESGGGLVQPGGSLRLSCAASGFTFSSYGMNWVRQAPGKGLEWVASINYNGGYTSYADSVKGRFTISRDNSKNTLYLQMNSLRAEDTAVYYCARAANWHDTHLDYWGQGTLVTVSS
VL: DIQMTQSPSSLSASVGDRVTITCRASQSIISYVNWYQQKPGKAPKLVIYAATSRASGVPSRFSGSGSGTDFTLTISSLQPEDFATYYCQQSYDTPLTFGGGTKVEIK
notes: Group I
Take B4: the figures for the optical density (with human ACVR2A; with mouse ACVR2A; in test [1]) were 3.53 OD, 3.62 OD and 3.23 OD, respectively.

B5: 373_D11 (antibody, V domains shown)
VH: EVQLLESGGGLVQPGGSLRLSCAASGFTFSSYGMHWVRQAPGKGLEWVAGINYNGGYTSYADSVKGRFTISRDNSKNTLYLQMNSLRAEDTAVYYCARAATWHDTHLDYWGQGTLVTVSS
VL: DIQMTQSPSSLSASVGDRVTITCRASQSILTYVNWYQQKPGKAPKLLIYAATSRASGVPSRFSGSGSGTDFTLTISSLQPEDFATYYCQQSYDNPLTFGGGTKVEIK
notes: Group II
With B5, the results for the optical density (in the test with human ACVR2A; with mouse ACVR2A; in test [1]) were 3.57 OD, 3.55 OD and 3.2 OD, respectively.

B6: 372_B11 (antibody, V domains shown)
VH: EVQLLESGGGLVQPGGSLRLSCAASGFTFSSYSMHWVRQAPGKGLEWVAGINYNSGYTSYADSVKGRFTISRDNSKNTLYLQMNSLRAEDTAVYYCARAANWHDTHLDYWGQGTLVTVSS
VL: DIQMTQSPSSLSASVGDRVTITCRASQSILTYVNWYQQKPGKAPKLVIYAATSLASGVPSRFSGSGSGTDFTLTISSLQPEDFATYYCQQSYDTPLTFGGGTKVEIK
notes: Group I
Regarding B6, the optical density with human ACVR2A turned out to be 2.31 OD; in the test with mouse ACVR2A it was 2.58 OD; in test [1] it was 3.73 OD.

B7: 375_C10 (antibody, V domains shown)
VH: EVQLLESGGGLVQPGGSLRLSCAASGFTFSSYGMHWVRQAPGKGLEWVASINYNGGYTSYADSVKGRFTISRDNSKNTLYLQMNSLRAEDTAVYYCARAANWHDTALDYWGQGTLVTVSS
VL: not shown
notes: Group I
On to B7, for which the optical density with human ACVR2A stood at 3.46 OD; with mouse ACVR2A, 3.6 OD; in test [1], 3.33 OD.

B8: 371_H02 (antibody, V domains shown)
VH: EVQLLESGGGLVQPGGSLRLSCAASGFTFDDYSMNWVRQAPGKGLEWVSGINYNGGYKSYADSVKGRFTISRDNSKNTLYLQMNSLRAEDTAVYYCARAANWHDTHLDYWGQGTLVTVSS
VL: DIQMTQSPSSLSASVGDRVTITCRASQSIISYLNWYQQKPGKAPKLVIYAATSLASGVPSRFSGSGSGTDFTLTISSLQPEDFATYYCQQSYENPLTFGGGTKVEIK
notes: Group I
Regarding B8, the optical density was found to be 1.88 OD with human ACVR2A, 2.03 OD with mouse ACVR2A and 3.62 OD in test [1].

B9: 374_B02 (antibody, V domains shown)
VH: EVQLLESGGGLVQPGGSLRLSCAASGFTFDSYSMHWVRQAPGKGLEWVAGINYNSGYTSYADSVKGRFTISRDNSKNTLYLQMNSLRAEDTAVYYCARAANWHDTHLDYWGQGTLVTVSS
VL: DIQMTQSPSSLSASVGDRVTITCRASQSIISYLNWYQQKPGKAPKLLIYAATSRASGVPSRFSGSGSGTDFTLTISSLQPEDFATYYCQQSYDSPLTFGGGTKVEIK
notes: Group I
As to B9, the optical density with human ACVR2A was 3.42 OD; in the test with mouse ACVR2A, 3.54 OD; in test [1] it was 3.02 OD.

B10: 374_B01 (antibody, V domains shown)
VH: EVQLLESGGGLVQPGGSLRLSCAASGFTFDSYGMHWVRQAPGKGLEWVAGINYNSGYTSYADSVKGRFTISRDNSKNTLYLQMNSLRAEDTAVYYCARAATWHDTHLDYWGQGTLVTVSS
VL: DIQMTQSPSSLSASVGDRVTITCRASQSILSYLNWYQQKPGKAPKLLIYAASSLQSGVPSRFSGSGSGTDFTLTISSLQPEDFATYYCQQSYDSPLTFGGGTKVEIK
notes: Group II
Consider B10, for which the optical density with human ACVR2A is 3.14 OD; with mouse ACVR2A, 3.37 OD; in test [1] it was 2.92 OD.

B11: 372_D07 (antibody, V domains shown)
VH: EVQLLESGGGLVQPGGSLRLSCAASGFTFSSYGMNWVRQAPGKGLEWVAGINYNGGYTSYADSVKGRFTISRDNSKNTLYLQMNSLRAEDTAVYYCARAATWHDTHLDYWGQGTLVTVSS
VL: DIQMTQSPSSLSASVGDRVTITCRASQSILSYLNWYQQKPGKAPKLLIYAATSRASGVPSRFSGSGSGTDFTLTISSLQPEDFATYYCQQSYESPLTFGGGTKVEIK
notes: Group II
B11: the optical density turned out to be 2.68 OD with human ACVR2A, 2.99 OD with mouse ACVR2A and 3.7 OD in test [1].

B12: 374_B07 (antibody, V domains shown)
VH: EVQLLESGGGLVQPGGSLRLSCAASGFTFSSYGMHWVRQAPGKGLEWVSSINYNGGYKSYADSVKGRFTISRDNSKNTLYLQMNSLRAEDTAVYYCARAATWHDTHLDYWGQGTLVTVSS
VL: DIQMTQSPSSLSASVGDRVTITCRASQSIISYLNWYQQKPGKAPKLLIYAATSLASGVPSRFSGSGSGTDFTLTISSLQPEDFATYYCQQSYESPLTFGGGTKVEIK
notes: Group II
Turning to B12, the optical density with human ACVR2A worked out at 3.71 OD; with mouse ACVR2A, 3.71 OD; in test [1], 3.29 OD.

B13: 372_A09 (antibody, V domains shown)
VH: EVQLLESGGGLVQPGGSLRLSCAASGFTFDSYGMNWVRQAPGKGLEWVSGINYNGGYTSYADSVKGRFTISRDNSKNTLYLQMNSLRAEDTAVYYCARAANWHDTALDYWGQGTLVTVSS
VL: DIQMTQSPSSLSASVGDRVTITCRASQSILSYLNWYQQKPGKAPKLVIYAATSRASGVPSRFSGSGSGTDFTLTISSLQPEDFATYYCQQSYNSPLTFGGGTKVEIK
notes: Group I
Regarding B13, the optical density with human ACVR2A was found to be 2.43 OD; with mouse ACVR2A, 2.56 OD; in test [1], 3.5 OD.

B14: 372_E02 (antibody, V domains shown)
VH: EVQLLESGGGLVQPGGSLRLSCAASGFTFSSYGMNWVRQAPGKGLEWVASINYNGGYTSYADSVKGRFTISRDNSKNTLYLQMNSLRAEDTAVYYCARAANWHDTALDYWGQGTLVTVSS
VL: DIQMTQSPSSLSASVGDRVTITCRASQSIISYVNWYQQKPGKAPKLVIYAATSRASGVPSRFSGSGSGTDFTLTISSLQPEDFATYYCQQSYDLPLTFGGGTKVEIK
notes: Group I
Consider B14, for which the optical density in the test with human ACVR2A turned out to be 2.84 OD; with mouse ACVR2A, 2.74 OD; in test [1] it was 3.58 OD.

B15: 374_H02 (antibody, V domains shown)
VH: EVQLLESGGGLVQPGGSLRLSCAASGFTFSSYGMHWVRQAPGKGLEWVASINYNGGYTSYADSVKGRFTISRDNSKNTLYLQMNSLRAEDTAVYYCARAATWHDTHLDYWGQGTLVTVSS
VL: DIQMTQSPSSLSASVGDRVTITCRASQSILSYVNWYQQKPGKAPKLLIYAATSLASGVPSRFSGSGSGTDFTLTISSLQPEDFATYYCQQSYDTPLTFGGGTKVEIK
notes: Group II
Take B15: the optical density with human ACVR2A is 3.26 OD; in the test with mouse ACVR2A, 3.26 OD; in test [1], 3.18 OD.

B16: 373_G06 (antibody, V domains shown)
VH: EVQLLESGGGLVQPGGSLRLSCAASGFTFSSYGMHWVRQAPGKGLEWVASINYNSGYTGYADSVKGRFTISRDNSKNTLYLQMNSLRAEDTAVYYCARAATWHDTHLDYWGQGTLVTVSS
VL: DIQMTQSPSSLSASVGDRVTITCRASQSILSYVNWYQQKPGKAPKLLIYAATSLASGVPSRFSGSGSGTDFTLTISSLQPEDFATYYCQQSYNLPLTFGGGTKVEIK
notes: Group II
B16: the optical density with human ACVR2A turned out to be 3.4 OD; with mouse ACVR2A it was 3.52 OD; in test [1], 3.23 OD.

B17: 374_A12 (antibody, V domains shown)
VH: EVQLLESGGGLVQPGGSLRLSCAASGFTFDSYGMHWVRQAPGKGLEWVSSINYNGGYTSYADSVKGRFTISRDNSKNTLYLQMNSLRAEDTAVYYCARAATWHDTHLDYWGQGTLVTVSS
VL: DIQMTQSPSSLSASVGDRVTITCRASQSILTYLNWYQQKPGKAPKLLIYAATSRASGVPSRFSGSGSGTDFTLTISSLQPEDFATYYCQQSDSNPLTFGGGTKVEIK
notes: Group II
In the case of B17, the optical density turned out to be 3.31 OD with human ACVR2A, 3.26 OD with mouse ACVR2A and 3.06 OD in test [1].

B18: 373_E11 (antibody, V domains shown)
VH: EVQLLESGGGLVQPGGSLRLSCAASGFTFDSYGMHWVRQAPGKGLEWVASINYNGGYTSYADSVKGRFTISRDNSKNTLYLQMNSLRAEDTAVYYCARAANWHDTALDYWGQGTLVTVSS
VL: DIQMTQSPSSLSASVGDRVTITCRASQSIVSYLNWYQQKPGKAPKLVIYAATSRASGVPSRFSGSGSGTDFTLTISSLQPEDFATYYCQQSYDSPLTFGGGTKVEIK
notes: Group I
Take B18: the optical density with human ACVR2A was 3.3 OD; with mouse ACVR2A it was 3.36 OD; in test [1], 3.17 OD.
